Reference: the supplement of paper PMC7125110
± gives the standard error. For part of these data: This sample holds only a part of the variants without activity.

B1: glmS ribozyme (parent)
chain: AUAAAAGCGCCAGAACUACAGAAAUGUAGUUGACGAGGAGGAGGUUUAUCGAAUUUUCGGCGGAUGCCUCCAAA

Assays:
Conditions in all cases: with glucosamine-6-phosphate
glucosamine-6-phosphate [1] = variants of: B1; assay: kcat; higher = faster cleavage; RNA array
How it was run: (§1)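 Over ~14 h at 37 °C, tiles were imaged as glucosamine-6-phosphate (40 μM to 10 mM) in HEPES/KCl/Mg(OAc)2 buffer flowed across sequenced MiSeq chips. The chips carried barcoded ribozyme variants transcribed in situ by E. coli RNA polymerase and tracked with a hybridised Cy3 probe. After normalisation to baseline and to non-cleaving reference variants, one- or two-exponential decay fits of per-tile medians gave kobs. kcat and KM followed from weighted Michaelis–Menten fits across concentrations.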

glucosamine-6-phosphate [2] = variants of: B1; assay: KM; higher = weaker cofactor use; RNA array
How it was run: as §1

glucosamine-6-phosphate [3] = variants of: B1; assay: self-cleavage kobs at 40 uM GlcN6P; higher = faster cleavage; RNA array
How it was run: as §1

glucosamine-6-phosphate [4] = variants of: B1; assay: self-cleavage kobs at 160 uM GlcN6P; higher = faster cleavage; RNA array
How it was run: as §1

glucosamine-6-phosphate [5] = variants of: B1; assay: self-cleavage kobs at 640 uM GlcN6P; higher = faster cleavage; RNA array
How it was run: as §1

glucosamine-6-phosphate [6] = variants of: B1; assay: self-cleavage kobs at 2500 uM GlcN6P; higher = faster cleavage; RNA array
How it was run: as §1

glucosamine-6-phosphate [7] = variants of: B1; assay: self-cleavage kobs at 10000 uM GlcN6P; higher = faster cleavage; RNA array
How it was run: as §1

Variant	kcat (glucosamine-6-phosphate [1]) [s⁻¹]	KM (glucosamine-6-phosphate [2]) [µM]	self-cleavage kobs at 40 uM GlcN6P (glucosamine-6-phosphate [3]) [s⁻¹]	self-cleavage kobs at 160 uM GlcN6P (glucosamine-6-phosphate [4]) [s⁻¹]	self-cleavage kobs at 640 uM GlcN6P (glucosamine-6-phosphate [5]) [s⁻¹]	self-cleavage kobs at 2500 uM GlcN6P (glucosamine-6-phosphate [6]) [s⁻¹]	self-cleavage kobs at 10000 uM GlcN6P (glucosamine-6-phosphate [7]) [s⁻¹]
C16A U55C	0.00122 ± 0.00014	2120 ± 400	1.93e-05 ± 8.5e-06	7.75e-05 ± 1.1e-05	0.00033 ± 4.4e-05	0.000717 ± 8e-05	0.000949 ± 0.00011
U46C A53U U65G	0.000127 ± 3.1e-05	6880 ± 2800	–	–	–	3.28e-05 ± 1.2e-05	7.63e-05 ± 2.5e-05
G40C A53G	0.00206 ± 0.00018	2160 ± 310	4.19e-05 ± 1.7e-05	0.000126 ± 3e-05	0.000539 ± 0.00012	0.00115 ± 0.00032	0.00166 ± 0.00025
U30A G41C	4.61e-05 ± 3.9e-06	5270 ± 1100	< 1e-05	–	–	–	–
G13A A39U	0.000349 ± 1.8e-05	2910 ± 270	–	–	6.49e-05 ± 8.9e-06	0.000153 ± 2e-05	0.000277 ± 3.4e-05
U47C U57A	0.000495 ± 0.00012	–	–	–	–	2.94e-05 ± 1.3e-05	0.0001 ± 2.7e-05
G7U C16U C50G U69G	0.000615 ± 0.00015	–	0.00029 ± 0.00013	–	0.0012 ± 0.00039	0.000564 ± 0.0002	0.00054 ± 0.00017
A48U	0.000759 ± 5.7e-05	2420 ± 350	< 1e-05	–	0.000153 ± 3.5e-06	0.000432 ± 1e-05	0.000593 ± 1.1e-05
A48C	0.000456 ± 3.9e-05	2180 ± 390	–	2.69e-05 ± 2.4e-06	9.91e-05 ± 2.7e-06	0.000279 ± 6.6e-06	0.000362 ± 6.6e-06
G13A A14C	0.000465 ± 2.9e-05	2440 ± 230	–	2.93e-05 ± 1e-05	9.47e-05 ± 1.2e-05	0.000245 ± 3.2e-05	0.000353 ± 8.7e-05
A42G	0.0432 ± 0.015	1270 ± 530	0.00143 ± 3.4e-05	0.00406 ± 0.00021	0.0128 ± 0.00054	0.0238 ± 0.0016	0.0639 ± 0.0036
G51U U54A	< 1e-05	–	–	–	–	–	–
C11A C71G	5.67e-05 ± 6.5e-06	–	–	–	–	4.99e-05 ± 1.2e-05	5.95e-05 ± 1.3e-05
C11A C71A	6.72e-05 ± 2.1e-05	–	–	–	–	2.11e-05 ± 9e-06	4.87e-05 ± 6.4e-06
G51A G59A C70U	1.55e-05 ± 3.5e-06	–	< 1e-05	–	–	–	< 1e-05
G41C U46C	3.31e-05 ± 3.8e-06	2440 ± 1200	< 1e-05	< 1e-05	–	–	2.65e-05 ± 9.7e-06
A12G C71G	0.000425 ± 2.2e-05	4400 ± 370	–	–	5.45e-05 ± 6.3e-06	0.00015 ± 1.6e-05	0.000298 ± 3.1e-05
G32A A33G	1.05e-05 ± 2.6e-06	–	< 1e-05	–	–	–	–
G62A C70A	4.15e-05 ± 2e-05	–	< 1e-05	–	7.27e-05 ± 2.4e-05	–	–

Variant	kcat (glucosamine-6-phosphate [1]) [s⁻¹]	KM (glucosamine-6-phosphate [2]) [µM]	self-cleavage kobs at 40 uM GlcN6P (glucosamine-6-phosphate [3]) [s⁻¹]	self-cleavage kobs at 160 uM GlcN6P (glucosamine-6-phosphate [4]) [s⁻¹]	self-cleavage kobs at 640 uM GlcN6P (glucosamine-6-phosphate [5]) [s⁻¹]	self-cleavage kobs at 2500 uM GlcN6P (glucosamine-6-phosphate [6]) [s⁻¹]	self-cleavage kobs at 10000 uM GlcN6P (glucosamine-6-phosphate [7]) [s⁻¹]
U30A A52U C70U	7.84e-05 ± 3.9e-06	89.4 ± 24	–	4.9e-05 ± 1.3e-05	7.62e-05 ± 1.7e-05	7.31e-05 ± 1.4e-05	7.39e-05 ± 2.7e-05
G13U U54G C70G	4.42e-05 ± 4.5e-06	–	–	–	5.17e-05 ± 2.4e-05	4.17e-05 ± 1.2e-05	4.21e-05 ± 1.5e-05
A42G U65G	0.00591 ± 0.00097	4220 ± 930	5.66e-05 ± 1.2e-05	0.000279 ± 7.4e-05	0.000708 ± 0.00015	0.00211 ± 0.00033	0.00436 ± 0.00084
A15G C61G	< 1e-05	–	< 1e-05	< 1e-05	< 1e-05	< 1e-05	–
G32A A64U	< 1e-05	–	< 1e-05	< 1e-05	< 1e-05	–	–
C50U A53C	1.18e-05 ± 1.3e-06	–	–	–	–	–	–
G29U G41C U54G C70G	0.0128 ± 0.0056	–	0.00037 ± 9.8e-05	–	0.00251 ± 0.00059	0.0068 ± 0.0018	0.0126 ± 0.0039
G7A A39U	1.87e-05 ± 1.7e-06	2780 ± 970	–	–	–	–	–
G38C G40A	< 1e-05	–	–	< 1e-05	–	–	< 1e-05
A6U G51A C71A	5.19e-05 ± 1.7e-05	–	–	–	–	–	–
G32U A39U	0.000723 ± 0.00022	8400 ± 3500	–	3.38e-05 ± 1e-05	5.81e-05 ± 5.6e-06	0.000148 ± 1.2e-05	0.000411 ± 3.1e-05
G37A G59A	< 1e-05	–	< 1e-05	–	–	–	–
U55G G62U	< 1e-05	–	–	< 1e-05	–	–	< 1e-05
C16G A52U	0.00015 ± 2.4e-05	7790 ± 2700	–	–	–	–	8.41e-05 ± 1.5e-05
C61G C70G	1.85e-05 ± 5.6e-06	–	–	–	–	–	–
G44C C68U	8.31e-05 ± 1.5e-05	5560 ± 1800	< 1e-05	< 1e-05	–	2.65e-05 ± 1.2e-05	–
G32A G44A	6.55e-05 ± 1.7e-05	–	–	–	–	–	–
U57A U69C	0.000113 ± 1.4e-05	1640 ± 640	–	–	–	7.81e-05 ± 1.8e-05	9.38e-05 ± 1.8e-05
